Source: US20110092427A1, “POLYPEPTIDE AND PHARMACEUTICAL COMPOSITION CONTAINING THE POLYPEPTIDE” (National University Corporation Hokkaido Universit y, priority 2008, published 2011)
Peptide text beside a SMILES is read from it.

Columns and labels:
[1] = system: psoriasis patient-derived skin grafted onto the back of a mouse; assay: External application to psoriasis patient skin grafted onto SCID mice; format: in vivo; settings: for side effects at the applied sites: 70 μL of 1 mM solution in PBS applied to grafted site daily for 14 days; for thickness of the grafted skin (HE-stained sections): psoriasis skin graft, 70 μL of 1 mM solution applied daily for 14 days, FIG. 6, p<0.05
From the text: The hair in the area of approximately 1 cm^2 in the back of 7 to 8 week-old SCID mice (Clea Japan, Inc.) was shaved, and the full-thickness skin was removed while keeping the vessel plexus intact on the fascia overlying back muscles. The skin of affected area of a psoriasis patient that was sampled under the approval of the ethical code was washed with PBS containing 1% penicillin, 1% streptomycine, and 1% amphotericin B, and each piece of the skin thus treated was separately transplanted onto the skin-removed area of the above-described mice.
Seven days after transplantation, 70 μL of each of solutions prepared by dissolving polypeptides P5-1, P5-2, and P5-3 into phosphate buffered saline (PBS) (each 1 mM) was applied to the grafted sites of three mice daily for 14 days. […] Further, as a control, the same volumes of PBS solution containing a polypeptide having a random sequence and PBS without polypeptide were applied. After 14 days, a part of the grafted skin was collected and embedded in an optimal cutting temperature (OCT) reagent (Sakura finetechnical Co., Ltd.) and then frozen in liquid nitrogen, which was then prepared as 5 μm-thick sections.
Also, in accordance with the method of Abe et al. (Am. J. Pathol., 2004, Vol. 164, No. 4, pages 1225-1232), the capillary endothelial cells in the grafted superficial dermis were enumerated by immunoassay employing a rat anti-mouse CD31 antibody using CD31, which was a marker protein of the capillary endothelial cells, as an index.

[2] = system: human osteosarcoma cells, MG63; assay: Inhibition of MG63 tumor cell proliferation, 5-bromo-2' deoxyuridine incorporation; format: cell-based; settings: 100 nM; FIG. 3 and FIG. 4, p<0.01
Protocol: (§1) The inhibitory effect of each polypeptide on tumor cell proliferation with respect to human osteosarcoma cells, MG63 (Health Science Research Resources) was measured in accordance with the method described by Takenaka et al. (Life Science, 2005, Vol. 77, pages 3231-3241).
(§2) Into Dulbecco's modified Eagle's medium (DMEM) supplemented with 10% of fetal bovine serum (FBS) and 100 units/mL penicillin and streptomycin (hereinbelow, simply referred to as a medium), MG63 was suspended. Then, 100 nM commercially available PEDF protein (Sigma) and each of 100 nM polypeptides F1 to F3 prepared in Example 1 “2) Production of polypeptides F1 to F3” were each added per medium, followed by incubation at 37° C. for 24 hours. Subsequently, [^3H] thymidine (Amersham Biosciences Corp.) was added and incubation was carried out for four hours, after which the amount of [^3H] thymidine incorporation by MG63 was measured and the inhibitory effect on tumor cell proliferation was examined.
Also, by carrying out similar operations to the above, the inhibitory effect on MG63 tumor cell proliferation was examined by measuring the amount of 5-bromo-2′ deoxyuridine (Roche) incorporation with addition of each of 100 nM polypeptides P1 to P6. […]

[3] = system: normal individual-derived skin grafted onto the back of mice; assay: Subcutaneous injection at normal individual skin grafted onto SCID mice; format: in vivo; settings: skin of a normal individual, 30 μg subcutaneous injection, three times/week for three weeks
From the text: (§3) Further, in a similar manner to the above, the hair in the area of approximately 1 cm^2 in the back of 7 to 8 week old SCID mice (Clea Japan, Inc.) was shaved, and the full-thickness skin was removed while keeping the vessel plexus intact on the fascia overlying back muscles. The skin of affected area of a psoriasis patient and the skin of a normal individual that were sampled under the approval of the ethical code were each washed with PBS containing 1% penicillin and 1% amphotericin B, and each of the skin thus treated was separately transplanted onto the skin-removed area of the above-described mice.
(§4) Seven days after transplantation, commercially available PEDF protein (30 μg) was given at the grafted site by subcutaneous injection. The injection was administered for three weeks at three times/week. As a control, a mouse given subcutaneous injection of only PBS was used. The day after the last subcutaneous injection, a part of the grafted skin was collected and stained with HE in a similar manner to the above, and the thickness of the grafted skin was measured. The results obtained from the skin of affected area of a psoriasis patient are shown in FIG. 8 (photograph) and FIG. 9, and the results obtained from the skin of a normal individual are shown in FIG. 10 (photograph) and FIG. 11.
(§5) Also, by carrying out similar operations to the above, the capillary endothelial cells were enumerated using CD31 as an index. The results obtained from the skin of affected area of a psoriasis patient are shown in FIG. 12 and the results obtained from the skin of a normal individual are shown in FIG. 13.
(§6) Further, the frequency of Ki-67 expressing positive cells, where Ki-67 is a proliferation marker of the basal cell layer, was measured in accordance with the method of Gilhar et al. (Am. J. Pathol., 2006, Vol. 168, No. 1, pages 170 to 175). The results obtained from the skin of affected area of a psoriasis patient are shown in FIG. 14 and the results obtained from the skin of a normal individual are shown in FIG. 15.

[4] = system: psoriasis patient-derived skin grafted onto the back of mice; assay: Subcutaneous injection at psoriasis patient skin grafted onto SCID mice; format: in vivo; settings: skin of affected area of a psoriasis patient, 30 μg subcutaneous injection, three times/week for three weeks
From the text: as §3, §4, §5, §6

[5] = system: human osteosarcoma cells, MG63; assay: Inhibition of MG63 tumor cell proliferation, [3H] thymidine incorporation; format: cell-based; settings: 100 nM, incubation 24 hours, then [3H] thymidine four hours; FIG. 2, p<0.01
Protocol: as §1, §2

## CC(C)C[C@H](NC(=O)[C@@H](N)Cc1c[nH]cn1)C(=O)N[C@H](C(=O)N[C@@H](Cc1ccccc1)C(=O)N1CCC[C@H]1C(=O)N[C@@H](CC(C)C)C(=O)N[C@@H](CC(=O)O)C(=O)O)[C@@H](C)O [polypeptide P5-1] (H-HLTFPLD-OH)
[1]
  side effects at the applied sites: no side effects and the like were apparent

## polypeptide P5-2: polypeptide of SEQ ID NO: 2, identical to positions 388 to 394 of PEDF (YHLNQP; listed as Homo sapiens)
[1]
  side effects at the applied sites: no side effects and the like were apparent
  thickness of the grafted skin (HE-stained sections): significantly reduced

## polypeptide P5-3: polypeptide of SEQ ID NO: 3, identical to positions 395 to 400 of PEDF (FIFVLRD; listed as Homo sapiens)
[1]
  side effects at the applied sites: no side effects and the like were apparent
  thickness of the grafted skin (HE-stained sections): significantly reduced

## polypeptide P5: polypeptide of SEQ ID NO: 5, identical to the amino acid sequence of positions 381 to 400 of PEDF (HLTFPLDYHLNQPFIFVLRD; listed as Homo sapiens)
[2]
  inhibitory effect on MG63 tumor cell proliferation (amount of 5-bromo-2' deoxyuridine incorporation): an inhibitory effect on tumor cell proliferation was confirmed

B1: PEDF protein: commercially available PEDF protein comprising the amino acid sequence of SEQ ID NO: 6 (Sigma) (protein, listed as Homo sapiens)
chain: MQALVLLLCIGALLGHSSCQNPASPPEEGSPDPDSTGALVEEEDPFFKVPVNKLAAAVSNFGYDLYRVRSSTSPTTNVLLSPLSVATALSALSLGAEQRTESIIHRALYYDLISSPDIHGTYKELLDTVTAPQKNLKSASRIVFEKKLRIKSSFVAPLEKSYGTRPRVLTGNPRLDLQEINNWVQAQMKGKLARSTKEIPDEISILLLGVAHFKGQWVTKFDSRKTSLEDFYLDEERTVRVPMMSDPKAVLRYGLDSDLSCKIAQLPLTGSMSIIFFLPLKVTQNLTLIEESLTSEFIHDIDRELKTVQAVLTVPKLKLSYEGEVTKSLQEMKLQSLFDSPDFSKITGKPIKLTQVEHRAGFEWNEDGAGTTPSPGLQPAHLTFPLDYHLNQPFIFVLRDTDTGALLFIGKILDPRGP
[3]; FIG. 11, p<0.05
  thickness of the grafted skin: significantly reduced
[3]; FIG. 13, p<0.05
  number of capillary endothelial cells (CD31-positive): significantly reduced
[3]; FIG. 15, p<0.05
  frequency of Ki-67 expressing positive cells in the basal cell layer: significantly reduced
[4]; FIG. 9, p<0.05
  thickness of the grafted skin: significantly reduced
[4]; FIG. 12, p<0.05
  number of capillary endothelial cells (CD31-positive): significantly reduced
[4]; FIG. 14, p<0.05
  frequency of Ki-67 expressing positive cells in the basal cell layer: significantly reduced

B2: polypeptide F3: polypeptide comprising the amino acid sequence of positions 301 to 418 of PEDF (SEQ ID NO: 4) (protein, listed as Homo sapiens)
chain: IDRELKTVQAVLTVPKLKLSYEGEVTKSLQEMKLQSLFDSPDFSKITGKPIKLTQVEHRAGFEWNEDGAGTTPSPGLQPAHLTFPLDYHLNQPFIFVLRDTDTGALLFIGKILDPRGP
[5]
  inhibitory effect on tumor cell proliferation (amount of [3H] thymidine incorporation by MG63): a strong inhibitory effect on tumor cell proliferation was confirmed
